Experimental data: publication PMC8908738

What was measured:
[1] = molecular target: T1, thrombin (UniProt P00734;P00734 328-363;364-622); assay: competitive hybridization, CD of DNA origami chiral plasmonic probe; 170 nM thrombin, n=7-11 bp at aptamer 3' end; R2=0.97; Binding buffer, pH and temperature not given in the material shown; origami assembled in TE with 20 mM MgCl2 and 5 mM NaCl; thrombin 170 nM
[2] = molecular target: T1, thrombin; assay: competitive hybridization, CD of DNA origami chiral plasmonic probe; 170 nM thrombin, n=7-11 bp at aptamer 5' end; R2=0.94 (below the authors' 0.95 validity threshold); Binding buffer, pH and temperature not given in the material shown; origami assembled in TE with 20 mM MgCl2 and 5 mM NaCl; thrombin 170 nM

GGTTGGTGTGGTTGGTTTAGAGTGAGCAGAG (structured_DNA) [thrombin DNA aptamer, 3' bridge lock (complement hybridizes at aptamer 3' end)]
Kd [1]: 46.7 nM

CTAGCGAGCGAACTTTGGTTGGTGTGGTTGG (structured_DNA) [thrombin DNA aptamer, 5' bridge lock (complement hybridizes at aptamer 5' end)]
Kd [2]: 235 nM
